Test results as given in the Human Domainome abundance scans (Beltran et al. 2025).
± gives the uncertainty stated by the source.

Assay: abundance fitness (aPCA) (normalised: wild type 0, dead -1); higher = more abundant; growth selection in yeast, the domain comes from the species named
Conditions: Homo sapiens

In order of falling abundance fitness:
1. E3 ubiquitin-protein ligase NEDD4-like H222K, Q96PU5  0.251 ± 0.1
2. E3 ubiquitin-protein ligase NEDD4-like E232P, Q96PU5  0.216 ± 0.17
3. E3 ubiquitin-protein ligase NEDD4-like H222M, Q96PU5  0.173 ± 0.093
4. E3 ubiquitin-protein ligase NEDD4-like H186D, Q96PU5  0.168 ± 0.082
5. E3 ubiquitin-protein ligase NEDD4-like H186I, Q96PU5  0.086 ± 0.12
6. E3 ubiquitin-protein ligase NEDD4-like H222T, Q96PU5  0.081 ± 0.076
7. E3 ubiquitin-protein ligase NEDD4-like H222D, Q96PU5  0.071 ± 0.067
8. E3 ubiquitin-protein ligase NEDD4-like G207N, Q96PU5  0.042 ± 0.067
9. E3 ubiquitin-protein ligase NEDD4-like H214Y, Q96PU5  0.035 ± 0.088
10. E3 ubiquitin-protein ligase NEDD4-like H214K, Q96PU5  0.032 ± 0.081
11. E3 ubiquitin-protein ligase NEDD4-like E232N, Q96PU5  0.022 ± 0.072
12. E3 ubiquitin-protein ligase NEDD4-like H214M, Q96PU5  0.011 ± 0.083
13. E3 ubiquitin-protein ligase NEDD4-like H214I, Q96PU5  -0.005 ± 0.078
14. E3 ubiquitin-protein ligase NEDD4-like H214R, Q96PU5  -0.005 ± 0.068
15. E3 ubiquitin-protein ligase NEDD4-like H222E, Q96PU5  -0.013 ± 0.083
16. E3 ubiquitin-protein ligase NEDD4-like H222R, Q96PU5  -0.016 ± 0.057
17. E3 ubiquitin-protein ligase NEDD4-like H222Q, Q96PU5  -0.022 ± 0.1
18. E3 ubiquitin-protein ligase NEDD4-like H214V, Q96PU5  -0.026 ± 0.058
19. E3 ubiquitin-protein ligase NEDD4-like H222N, Q96PU5  -0.027 ± 0.11
20. E3 ubiquitin-protein ligase NEDD4-like G198A, Q96PU5  -0.032 ± 0.069
21. E3 ubiquitin-protein ligase NEDD4-like H214N, Q96PU5  -0.032 ± 0.11
22. E3 ubiquitin-protein ligase NEDD4-like H214S, Q96PU5  -0.035 ± 0.057
23. E3 ubiquitin-protein ligase NEDD4-like H186V, Q96PU5  -0.045 ± 0.058
24. E3 ubiquitin-protein ligase NEDD4-like H222V, Q96PU5  -0.045 ± 0.059
25. E3 ubiquitin-protein ligase NEDD4-like G198Y, Q96PU5  -0.049 ± 0.069
26. E3 ubiquitin-protein ligase NEDD4-like H214L, Q96PU5  -0.05 ± 0.051
27. E3 ubiquitin-protein ligase NEDD4-like H222C, Q96PU5  -0.052 ± 0.094
28. E3 ubiquitin-protein ligase NEDD4-like H222F, Q96PU5  -0.052 ± 0.089
29. E3 ubiquitin-protein ligase NEDD4-like G198M, Q96PU5  -0.058 ± 0.092
30. E3 ubiquitin-protein ligase NEDD4-like H214T, Q96PU5  -0.062 ± 0.067
31. E3 ubiquitin-protein ligase NEDD4-like H214P, Q96PU5  -0.063 ± 0.077
32. E3 ubiquitin-protein ligase NEDD4-like H214W, Q96PU5  -0.068 ± 0.066
33. E3 ubiquitin-protein ligase NEDD4-like H214F, Q96PU5  -0.07 ± 0.1
34. E3 ubiquitin-protein ligase NEDD4-like H222G, Q96PU5  -0.07 ± 0.06
35. E3 ubiquitin-protein ligase NEDD4-like G198Q, Q96PU5  -0.075 ± 0.06
36. E3 ubiquitin-protein ligase NEDD4-like G198P, Q96PU5  -0.077 ± 0.074
37. E3 ubiquitin-protein ligase NEDD4-like H222L, Q96PU5  -0.088 ± 0.056
38. E3 ubiquitin-protein ligase NEDD4-like G198N, Q96PU5  -0.095 ± 0.11
39. E3 ubiquitin-protein ligase NEDD4-like H186Y, Q96PU5  -0.095 ± 0.12
40. E3 ubiquitin-protein ligase NEDD4-like G198K, Q96PU5  -0.103 ± 0.087
41. E3 ubiquitin-protein ligase NEDD4-like H186F, Q96PU5  -0.111 ± 0.12
42. E3 ubiquitin-protein ligase NEDD4-like H186N, Q96PU5  -0.123 ± 0.13
43. E3 ubiquitin-protein ligase NEDD4-like G207K, Q96PU5  -0.128 ± 0.063
44. E3 ubiquitin-protein ligase NEDD4-like H222P, Q96PU5  -0.133 ± 0.063
45. E3 ubiquitin-protein ligase NEDD4-like G198S, Q96PU5  -0.139 ± 0.057
46. E3 ubiquitin-protein ligase NEDD4-like G198F, Q96PU5  -0.15 ± 0.086
47. E3 ubiquitin-protein ligase NEDD4-like E232L, Q96PU5  -0.158 ± 0.19
48. E3 ubiquitin-protein ligase NEDD4-like G207D, Q96PU5  -0.162 ± 0.056
49. E3 ubiquitin-protein ligase NEDD4-like G198C, Q96PU5  -0.171 ± 0.092
50. E3 ubiquitin-protein ligase NEDD4-like G207H, Q96PU5  -0.171 ± 0.066
51. E3 ubiquitin-protein ligase NEDD4-like G207S, Q96PU5  -0.182 ± 0.048
52. E3 ubiquitin-protein ligase NEDD4-like H186L, Q96PU5  -0.185 ± 0.074
53. E3 ubiquitin-protein ligase NEDD4-like H186S, Q96PU5  -0.185 ± 0.076
54. E3 ubiquitin-protein ligase NEDD4-like G207Q, Q96PU5  -0.192 ± 0.069
55. E3 ubiquitin-protein ligase NEDD4-like G198H, Q96PU5  -0.197 ± 0.11
56. E3 ubiquitin-protein ligase NEDD4-like G198L, Q96PU5  -0.209 ± 0.054
57. E3 ubiquitin-protein ligase NEDD4-like H214Q, Q96PU5  -0.211 ± 0.089
58. E3 ubiquitin-protein ligase NEDD4-like H222W, Q96PU5  -0.218 ± 0.071
59. E3 ubiquitin-protein ligase NEDD4-like H186K, Q96PU5  -0.222 ± 0.079
60. E3 ubiquitin-protein ligase NEDD4-like G198R, Q96PU5  -0.238 ± 0.06
61. E3 ubiquitin-protein ligase NEDD4-like G198T, Q96PU5  -0.239 ± 0.075
62. E3 ubiquitin-protein ligase NEDD4-like H222I, Q96PU5  -0.251 ± 0.1
63. E3 ubiquitin-protein ligase NEDD4-like G207A, Q96PU5  -0.252 ± 0.052
64. E3 ubiquitin-protein ligase NEDD4-like G207R, Q96PU5  -0.252 ± 0.051
65. E3 ubiquitin-protein ligase NEDD4-like G207M, Q96PU5  -0.27 ± 0.067
66. E3 ubiquitin-protein ligase NEDD4-like H186C, Q96PU5  -0.282 ± 0.093
67. E3 ubiquitin-protein ligase NEDD4-like H186T, Q96PU5  -0.288 ± 0.11
68. E3 ubiquitin-protein ligase NEDD4-like G198V, Q96PU5  -0.291 ± 0.062
69. E3 ubiquitin-protein ligase NEDD4-like H186P, Q96PU5  -0.292 ± 0.081
70. E3 ubiquitin-protein ligase NEDD4-like G207E, Q96PU5  -0.312 ± 0.066
71. E3 ubiquitin-protein ligase NEDD4-like G198W, Q96PU5  -0.324 ± 0.095
72. E3 ubiquitin-protein ligase NEDD4-like H186M, Q96PU5  -0.349 ± 0.1
73. E3 ubiquitin-protein ligase NEDD4-like H186A, Q96PU5  -0.362 ± 0.069
74. E3 ubiquitin-protein ligase NEDD4-like G207Y, Q96PU5  -0.397 ± 0.06
75. E3 ubiquitin-protein ligase NEDD4-like E232M, Q96PU5  -0.402 ± 0.12
76. E3 ubiquitin-protein ligase NEDD4-like E232Y, Q96PU5  -0.413 ± 0.27
77. E3 ubiquitin-protein ligase NEDD4-like G207T, Q96PU5  -0.419 ± 0.055
78. E3 ubiquitin-protein ligase NEDD4-like G207F, Q96PU5  -0.423 ± 0.056
79. E3 ubiquitin-protein ligase NEDD4-like G207L, Q96PU5  -0.432 ± 0.052
80. E3 ubiquitin-protein ligase NEDD4-like H186G, Q96PU5  -0.461 ± 0.067
81. E3 ubiquitin-protein ligase NEDD4-like E232I, Q96PU5  -0.5 ± 0.31
82. E3 ubiquitin-protein ligase NEDD4-like H186Q, Q96PU5  -0.511 ± 0.1
83. E3 ubiquitin-protein ligase NEDD4-like H186R, Q96PU5  -0.59 ± 0.061
84. E3 ubiquitin-protein ligase NEDD4-like G198E, Q96PU5  -0.691 ± 0.092
85. E3 ubiquitin-protein ligase NEDD4-like G207W, Q96PU5  -0.738 ± 0.077
86. E3 ubiquitin-protein ligase NEDD4-like G207P, Q96PU5  -0.756 ± 0.053
87. E3 ubiquitin-protein ligase NEDD4-like G198I, Q96PU5  -0.765 ± 0.15
88. E3 ubiquitin-protein ligase NEDD4-like G207V, Q96PU5  -0.803 ± 0.056
89. E3 ubiquitin-protein ligase NEDD4-like E232V, Q96PU5  -0.901 ± 0.18
90. E3 ubiquitin-protein ligase NEDD4-like G207I, Q96PU5  -0.96 ± 0.061
91. E3 ubiquitin-protein ligase NEDD4-like E232W, Q96PU5  -0.98 ± 0.33
92. E3 ubiquitin-protein ligase NEDD4-like E232R, Q96PU5  -0.999 ± 0.24
93. E3 ubiquitin-protein ligase NEDD4-like H186W, Q96PU5  -1.24 ± 0.064
94. E3 ubiquitin-protein ligase NEDD4-like E232K, Q96PU5  -1.37 ± 0.43
95. E3 ubiquitin-protein ligase NEDD4-like H186E, Q96PU5  -1.69 ± 0.14
